Assay results as given in the supplement of paper PMC7125110.
± gives the standard error. This sample holds only a part of the variants without activity.

B1: glmS ribozyme (parent)
chain: AUAAAAGCGCCAGAACUACAGAAAUGUAGUUGACGAGGAGGAGGUUUAUCGAAUUUUCGGCGGAUGCCUCCAAA

Columns and labels:
Conditions in all cases: with glucosamine-6-phosphate
glucosamine-6-phosphate [1] = variants of: B1; assay: self-cleavage kobs at 40 uM GlcN6P; higher = faster cleavage; RNA array
Outline: (§1)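 Glucosamine-6-phosphate (40 μM to 10 mM) in HEPES/KCl/Mg(OAc)2 buffer was flowed over sequenced MiSeq chips, and tiles were imaged over ~14 h. Barcoded ribozyme variants there had been transcribed in situ by E. coli RNA polymerase and were tracked through a hybridised Cy3 probe at 37 °C. One- or two-exponential decay fits to per-tile medians, normalised to baseline and to non-cleaving reference variants, gave kobs. kcat and KM came from weighted Michaelis–Menten fits across concentrations.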

glucosamine-6-phosphate [2] = variants of: B1; assay: self-cleavage kobs at 160 uM GlcN6P; higher = faster cleavage; RNA array
Outline: as §1

glucosamine-6-phosphate [3] = variants of: B1; assay: self-cleavage kobs at 10000 uM GlcN6P; higher = faster cleavage; RNA array
Outline: as §1

glucosamine-6-phosphate [4] = variants of: B1; assay: self-cleavage kobs at 640 uM GlcN6P; higher = faster cleavage; RNA array
Outline: as §1

glucosamine-6-phosphate [5] = variants of: B1; assay: self-cleavage kobs at 2500 uM GlcN6P; higher = faster cleavage; RNA array
Outline: as §1

| Variant | self-cleavage kobs at 40 uM GlcN6P (glucosamine-6-phosphate [1]) | self-cleavage kobs at 160 uM GlcN6P (glucosamine-6-phosphate [2]) | self-cleavage kobs at 10000 uM GlcN6P (glucosamine-6-phosphate [3]) | self-cleavage kobs at 640 uM GlcN6P (glucosamine-6-phosphate [4]) | self-cleavage kobs at 2500 uM GlcN6P (glucosamine-6-phosphate [5]) |
| --- | --- | --- | --- | --- | --- |
| AUAAAAGCGCUAGAACUACAGAAAUGUAGUUGACGAGGAGGAGGUUUAUGGAAUUUUCGGCGGAAGCAUCCAAA | 8.61e-05 ± 2.8e-05 s⁻¹ | – | – | – | – |
| AUAAAAGCGCCAGAACUACAGAAAUGUAGGUGACGAGGAGGAGUUUUAUCGAAUUUUCGGCGGAUGCCUCCAAA | < 1e-05 s⁻¹ | < 1e-05 s⁻¹ | 4.23e-05 ± 1.3e-05 s⁻¹ | – | – |
| AUAAAAGCGCCAGAACUACAGAAAUGUAGUUGACGAGGAGGAGAUUUAUCGAAUUUUCGGCGAAUGCCUCCAAA | < 1e-05 s⁻¹ | < 1e-05 s⁻¹ | – | < 1e-05 s⁻¹ | < 1e-05 s⁻¹ |
| AUAAAAGCGCCAGAACUACAGAAAUGUAGUUGACGAGGAGGAGGUUUAUCGAAUUUUCGGGGAAUGCCUCCAAA | < 1e-05 s⁻¹ | < 1e-05 s⁻¹ | < 1e-05 s⁻¹ | – | – |
| AUAAAAGCGACAGAACUACAGAAAUGUAGUUGACGAGGACGAGGUUUAUCGAAUUUUCGGCGGAUGCCUCCAAA | < 1e-05 s⁻¹ | < 1e-05 s⁻¹ | < 1e-05 s⁻¹ | < 1e-05 s⁻¹ | – |
| AUAAAAGCGCCAGAACUACAGAAAUGUAGUUGACGAGGAGGAGGUUUAUCGAAUUUUCGGCAGAUGACUCCAAA | < 1e-05 s⁻¹ | – | < 1e-05 s⁻¹ | – | – |
| AUAAAAGCGCCAGAACUACAGAAAUGUAGUUGACGAGCAGGGGGUUUAUCGAAUUUUCGGCGGAUGCCUCCAAA | < 1e-05 s⁻¹ | < 1e-05 s⁻¹ | < 1e-05 s⁻¹ | < 1e-05 s⁻¹ | < 1e-05 s⁻¹ |
| AUAAAAGCGCCAGAACUACAGAAAUGUAGUUGACGAGGAGGUGGUUUAUCGAAUUUUCGGCGGAUGCAUCCAAA | < 1e-05 s⁻¹ | < 1e-05 s⁻¹ | < 1e-05 s⁻¹ | < 1e-05 s⁻¹ | – |
| AUAAAAGCGCCAGAACUACAGAAAUGUAGUUGACAAGGAGGAGGUUUAUCGAAUUUUCGGCGGAUGCCACCAAA | < 1e-05 s⁻¹ | < 1e-05 s⁻¹ | – | < 1e-05 s⁻¹ | < 1e-05 s⁻¹ |
| AUAAAAGCGCCAGAACUACAGAAAUGUAGUUGACGAGGAGGGGGUUUAUCGAAUUUUCGGCAGAUGCCUCCAAA | < 1e-05 s⁻¹ | < 1e-05 s⁻¹ | < 1e-05 s⁻¹ | < 1e-05 s⁻¹ | < 1e-05 s⁻¹ |
| AUAAAAGCGCCAGAACUACAGAAAUGUAGUUUAUGAGGAGGCGGUUUAUCGAAUUUUCGGCGGAUGCCUCCAAA | < 1e-05 s⁻¹ | – | – | – | < 1e-05 s⁻¹ |
